According to the supplement of paper PMC9170038:

How the values were obtained:
[1] = test system: K4 kissing-loop RNA reporter; assay: apparent KD of K4 kissing-loop reporter; higher = weaker reporter binding; conditions: Eterna round: R107;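 also: bound reporter read as fluorescence of individual clusters on recovered sequencing chips by microscopy, with normalized cluster intensities fitted with a binding model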
Procedure: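 RNA-MaP round R107: designed RNA switches with theophylline, tryptophan, arginine or FMN aptamers are transcribed on-chip within common flanks. They are titrated with a labelled K4 kissing-loop RNA reporter in RNA-MaP buffer (100 mM Tris pH 7.5, 80 mM KCl, 4 mM MgCl2), without ligand or with the indicated ligand. Median apparent KD per design.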

MS2 coat protein = assay: apparent KD of MS2 coat protein; designed switch direction (-1 OFF switch, 1 ON switch): -1; higher = weaker reporter binding
Procedure, shortened: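 On Illumina chips, designed RNA switches with common flanks were made by stalled E. coli RNA polymerase. Titrations with SNAP-549-labelled MS2 coat protein, doubling from 0.7 or 1.5 nM to 3 µM, were done with no input, with 200 uM small-molecule ligand, or with an oligonucleotide input. Apparent KD is the median per design over clusters, from curve fits of normalised cluster fluorescence.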

[2] = input ligand: theophylline 20 uM
[3] = input ligand: tryptophan 2.4 mM
[4] = Eterna round: R95, input ligand: microRNA oligo, concentration not stated
[5] = Eterna round: R95, input ligand: FMN 200 uM
[6] = Eterna round: R95, input ligand: none
[7] = input ligand: microRNA oligo, concentration not stated

Sequence | apparent KD of K4 kissing-loop reporter ([1]; input ligand: FMN 200 uM) [nM] | apparent KD of K4 kissing-loop reporter ([1]; input ligand: arginine 13.2 mM) [nM] | apparent KD of K4 kissing-loop reporter ([1]; input ligand: none) [nM] | apparent KD of K4 kissing-loop reporter [1, 2] [nM] | apparent KD of K4 kissing-loop reporter [1, 3] [nM] | apparent KD of MS2 coat protein (MS2 coat protein; [4]) [nM] | apparent KD of MS2 coat protein (MS2 coat protein; [5]) [nM] | apparent KD of MS2 coat protein (MS2 coat protein; [6]) [nM] | apparent KD of MS2 coat protein (MS2 coat protein; input ligand: FMN 200 uM) [nM] | apparent KD of MS2 coat protein (MS2 coat protein; [7]) [nM] | apparent KD of MS2 coat protein (MS2 coat protein; input ligand: none) [nM]
AAAACUCGGUAGUGAUGUUAUUGAGUGAACAAGGAUAUCUAUGAUAAGAGAAGGUGUAAGUUAAGCGUAUUUCGGCCUGUACAAU [theeternabot_sameState_KL_FMN_A_34] | 115 | 101 | 114 | 106 | 103 |  |  |  |  |  | 
AAAAUAAACUAGUGAUGUUGGUGUCCAGAUACCAGCGACGAAAGUCGCCCUUGGCAGCUGUGGACGUACAAAAUAAGUACGUCCU [MatMod 21 - Jieux - Same State - Theophylline A] | 319 | 183 | 345 | 198 | 289 |  |  |  |  |  | 
AAAAUAAAUAGCAGUCACGGAGUGAUGUUCCGAGGACCGGUACGGCCGCCACUCGACCAGACAAAGUCUGGAGGCGGAGACUGCA [#SwitchBubble 20 #K4Early] | 166 | 176 | 193 | 187 | 162 |  |  |  |  |  | 
AAAAUAAAUCAGUGAUGUUGGUAUCUGGAUACCAGCGAUAAUCAUCGCCCUUGGCAGCCAUGGACGUACAAAAUAAGUACGUCCU [MatMod 17 - Jieux - Same State - Theophylline A] | 242 | 157 | 180 | 228 | 193 |  |  |  |  |  | 
AAAAUAACCCAGUGAUGUUGGUAUCCAGAUACCAGCGACGAAAGUCGCCCUUGGCAGCUGUGGACGUACAAAAUAAGUACGUCCU | 903 | 395 | 403 | 545 | 612 |  |  |  |  |  | 
AAAAUAAGCCAGUGAUGUUGGUGUCCAGAUACCAGCGACGAAAGUCGCCCUUGGCAGCUGUGGACGUACAAAAUAAGUACGUCCU | 1030 | 760 | 1140 | 957 | 1120 |  |  |  |  |  | 
AAAAUAAUCCAGUGAUGUUGGUAUACAGAUACCAGCGACGAAAGUCGCCCUUGGCAGCUGUGGACGUACAAAAUAAGUACGUCCU | 934 | 972 | 1210 | 592 | 813 |  |  |  |  |  | 
AAAAUUAAGGCCGAAUUAACUUCUUGCAUACGAGGACCGGUACGGCCGCCACUCGAGUCAAGUGAUGUUUGACAAUCUAUUAUUA [JR_ExcTryptoA_Sub010] | 81.2 | 124 | 110 | 138 | 128 |  |  |  |  |  | 
AAAAUUGCGGUCGAAAGAACUUCUUGCAUACGAGGACCGGUACGGCCGCCACUCGAGUCAAGUGAUGUUUGAUAAUCUAUUAUUA [JR_ExcTryptoA_Sub012] | 151 | 225 | 215 | 296 | 212 |  |  |  |  |  | 
AAACAUCACUGGGAGUGAUGUUCUCAGUGACGAGGACCGGUACGGCCGCCACUCGCGAGAGAUAUAGUCAAGUAAUGACUGCAUU [Excl Tryptophan A V9] | 365 | 309 | 407 | 375 | 413 |  |  |  |  |  | 
AAACAUUGGUCGGAUACCAGUUAGACCGAUAGGUCAAAACUGGAGUGAUGUUCCUAAAAUAACCCUUGGCAGCCGACCGAUGAAA [MAT - Same State Theophlline B - Mod of Eli - D5] | 954 | 599 | 787 | 905 | 808 |  |  |  |  |  | 
AAACAUUGGUCUGAUACCAGCUGAUCGGAAACGAUCUUGCUGGAGUGAUGUUCCAGGAAAAGCCCUUGGCAGCAGACCGAUGAAA [MAT - Same State Theophlline B - Mod of Eli - D24] | 938 | 513 | 1030 | 715 | 962 |  |  |  |  |  | 
AAACAUUGGUCUGAUACCAGUUAGACCGAUAGGUCAAAACUGGAGUGAUGUUCCUAAAAUAACCCUUGGCAGCAGACCGAUGAAA [MAT - Same State Theophlline B - Mod of Eli - D4] | 3640 | 285 | 596 | 439 | 552 |  |  |  |  |  | 
AAACGUUGGUGCGAUACCAGCUGAUCGGAAACGAUCUUGCUGGAGUGAUGUUCCAGGAAAAGCCCUUGGCAGCGCACCGACGAAA [MAT - Same State Theophlline B - Mod of Eli - D26] | 950 | 659 | 1060 | 869 | 928 |  |  |  |  |  | 
AAAGAUCUUCUAGAAACUAGAAGAUCAAGAGAGGAUAUCCGAAUUCGGAGAAGGCUCGCUAAGUGAUGUUUGGACCCAAAGGGAA [AK3.1 SS FMN A] | 1100 | 984 | 1180 | 753 | 1130 |  |  |  |  |  | 
AAAGUGUCAGCACGAGUGAUGUUCGACGAUACCAGCCUCGAUAGAGGCCCUUGGCAGCGUAAACCAAGGGCUGGCACAAAAUAAA [#SwitchBubble 6 #K4Early] | 1050 | 975 | 1350 | 439 | 1360 |  |  |  |  |  | 
AAAUAUUCGAGUGAUGUUCGAUAAAUAUCAGAGGAUAUGCUUAAAAGCAGAAGGCUGUAUUUCUAUUUGUUAUGUAAUUUUAUAA [JR_SSFMNA_Sub021] | 125 | 160 | 135 | 154 | 91.4 |  |  |  |  |  | 
AAAUGACAAGUAAUAAAGAAAAGCGGCGAUACCAGUAAGAACGUAUACCCUUGGCAGCGCAUAUUAGAGUGAUGUUCUAAUCCGA [theeternabot_sameState_KL_Theo_A_25] | 129 | 174 | 148 | 220 | 99.3 |  |  |  |  |  | 

Sequence | apparent KD of K4 kissing-loop reporter ([1]; input ligand: FMN 200 uM) [nM] | apparent KD of K4 kissing-loop reporter ([1]; input ligand: arginine 13.2 mM) [nM] | apparent KD of K4 kissing-loop reporter ([1]; input ligand: none) [nM] | apparent KD of K4 kissing-loop reporter [1, 2] [nM] | apparent KD of K4 kissing-loop reporter [1, 3] [nM] | apparent KD of MS2 coat protein (MS2 coat protein; [4]) [nM] | apparent KD of MS2 coat protein (MS2 coat protein; [5]) [nM] | apparent KD of MS2 coat protein (MS2 coat protein; [6]) [nM] | apparent KD of MS2 coat protein (MS2 coat protein; input ligand: FMN 200 uM) [nM] | apparent KD of MS2 coat protein (MS2 coat protein; [7]) [nM] | apparent KD of MS2 coat protein (MS2 coat protein; input ligand: none) [nM]
AACGCUGGAUGAAUAACAUCUAGCGAAAUUCGAGGACCGGUACGGCCGCCACUCGAGCUAACUGCGAGUGAUGUUCGAUAAUAAA [Mat - Mod of OpenEnded 3 - D5] | 228 | 466 | 327 | 469 | 71.4 |  |  |  |  |  | 
AACUGUCAAGGACAACAUUACUGCAGUGAUACCAGCAUCGAAAGAUGCCCUUGGCAGCACCAACUUGCAGUGAUGUUGCAAGUAA [BrourdMod 5 - Jieux - Exclusion - Theophylline A] | 241 | 203 | 216 | 188 | 220 |  |  |  |  |  | 
AACUUAAUUUAUAAGCAGUGAUGUUGCUCACGAGGACCGGUACGGCCGCCACUCGAUCGGACUUAGGUCUUCAAUUAUUUCAUUA [JR_ExcTryptoA_Sub017] | 149 | 192 | 163 | 199 | 145 |  |  |  |  |  | 
AAGAGCUAGGCGGCCGCCACUAGUUGUGAACACGUACAAGCCAGUGAUGUUGGUAUGAUGGACGGUAGGACCGGGCCUAGCUGAA [Exclusion - Tryptophan B (Freestyle 14)] | 227 | 271 | 276 | 267 | 294 |  |  |  |  |  | 
UUUUUACGAGGAUAUCGUUUUUUUCACAUGAGGAUCACCCAUGUUGUUUAUGUUUCGUUGCGAGAAGGCGUUUGUU [JR_E5_Sub064] (puzzle: Exclusion 5) |  |  |  |  |  | 24.3 |  |  |  |  | 
UUUUUACGAGGAUAUCGUUUUUUUCACAUGAGGAUCACCCAUGUUGUUUAUGUUUCGUUUCGAGAAGGCGUUUGUU [JR_E5_Sub065] (puzzle: Exclusion 5) |  |  |  |  |  | 26.1 |  |  |  |  | 
UUUUUAGUGCUUUUUAAGUACAUGAGGAUCACCCAUGUACUUGUCUGGUGGUCCGGACAAGCUUUUUGCUCGUCUUG [Trying Again] (puzzle: Sensor v3, turn-off variant 1) |  |  |  |  |  | 35.9 | 41.4 | 48.2 |  |  | 
UUUUUAUAUGAAGGAUAUACUUAACAUGAGGAUCACCCAUGUGGUGUUGUGAGUGAGUGAGUUUAGUAGAAGGUCAAUGAUUUU [JMF's solution 10] (Eterna round: R96, puzzle: Exclusion NG 2) |  |  |  |  |  |  |  |  | 730 | 326 | 345
UUUUUAUAUGAAGGAUAUACUUAACAUGAGGAUCACCCAUGUGGUGUUGUGAGUGAGUGAGUUUAGUAGAAGGUCAAUUAGUGU [JMF's solution 102] (Eterna round: R96, puzzle: Exclusion NG 2) |  |  |  |  |  |  |  |  | 998 | 314 | 476
UUUUUAUAUGAAGGAUAUACUUAACAUGAGGAUCACCCAUGUGGUGUUGUGAGUGAGUGAGUUUAGUAGAAGGUCAAUUCGUUU [JMF's solution 80] (Eterna round: R96, puzzle: Exclusion NG 2) |  |  |  |  |  |  |  |  | 823 | 294 | 356
UUUUUCAUCUAUGGGAGUGACAUGAGGAUCACCCAUGUGUGUCUUGUUUUUUGUUCGUCUAAGACUUUCUGAUCAGU [JR_SV3TOV1_Sub032] (puzzle: Sensor v3, turn-off variant 1) |  |  |  |  |  | 313 | 128 | 160 |  |  | 
UUUUUCGAACAAGCUUCGAACAUGAGGAUCACCCAUGUAGGUAGAUUUGAGUAGGUUUGGAAGUAAGCUCGUCUUAU [JR_SV3TOV1_Sub081] (puzzle: Sensor v3, turn-off variant 1) |  |  |  |  |  | 561 | 416 | 592 |  |  | 
UUUUUCGAACAAGCUUCGUACAUGAGGAUCACCCAUGUUUUUAGUUUUGUGUUGGUCAGUAUGGAAGUUCGUCUUAU [JR_SV3TOV1_Sub088] (puzzle: Sensor v3, turn-off variant 1) |  |  |  |  |  | 356 | 239 | 288 |  |  | 
UUUUUGUCAGGAUAUGAGUAGUAGUACUAUUGUUUUAUUAUUUAGAAGGGACAUGAGGAUCACCCAUGUUUCUC [Bring Us a Shrubbery-01] (puzzle: Exclusion 4) |  |  |  |  |  | 14.4 |  |  |  |  | 
UUUUUGUGAGGAUAUCAGUAGUAAAAAAAUAAAAUUACUACUGAGAAGGCACAUGAGGAUCACCCAUGUUCCUU [salish99_ex4_r3_011] (puzzle: Exclusion 4) |  |  |  |  |  | 14.5 |  |  |  |  | 
UUUUUGUGAGGAUAUUAGUAGUAAAAAAAUAAAAUUACUACUGAGAAGGCACAUGAGGAUCACCCAUGUUCCUC [salish99_ex4_r3_040] (puzzle: Exclusion 4) |  |  |  |  |  | 34.9 |  |  |  |  | 
UUUUUGUGAGGAUAUUAGUAGUAAAUAAAUAAAAUUACUACUGAGAAGGCACAUGAGGAUCACCCAUGUUCCUC [salish99_ex4_r3_068] (puzzle: Exclusion 4) |  |  |  |  |  | 33.2 |  |  |  |  | 
